Earlier results, collected in paper PMC4526918.

Molecular target: HAESA-LIKE2 (HSL2) (Arabidopsis thaliana) (UniProt C0LGX3)
UniProt C0LGX3, sequence (C0LGX3 29-632): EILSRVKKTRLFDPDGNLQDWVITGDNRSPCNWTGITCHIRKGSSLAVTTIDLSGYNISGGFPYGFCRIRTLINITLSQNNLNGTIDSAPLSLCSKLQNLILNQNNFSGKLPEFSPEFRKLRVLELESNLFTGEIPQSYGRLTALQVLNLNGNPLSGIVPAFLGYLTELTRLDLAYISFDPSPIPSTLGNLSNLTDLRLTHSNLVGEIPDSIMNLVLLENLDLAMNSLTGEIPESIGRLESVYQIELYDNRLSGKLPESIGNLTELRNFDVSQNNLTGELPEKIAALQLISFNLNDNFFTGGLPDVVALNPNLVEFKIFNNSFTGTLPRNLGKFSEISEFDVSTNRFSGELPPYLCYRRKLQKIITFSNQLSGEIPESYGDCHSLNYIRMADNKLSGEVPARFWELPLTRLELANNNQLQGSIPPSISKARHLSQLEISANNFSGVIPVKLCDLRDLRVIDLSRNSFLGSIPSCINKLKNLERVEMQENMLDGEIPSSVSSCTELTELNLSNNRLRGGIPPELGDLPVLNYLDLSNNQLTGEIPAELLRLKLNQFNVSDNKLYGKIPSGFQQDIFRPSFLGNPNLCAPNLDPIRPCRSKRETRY

- Kd: 20 nM
Substance: IDA peptide (IDAp) (from UniProt Q8LAD7)
